# Experimental data: publication PMC10549244 (RSC Chemical Biology, 2023)
# B1: SonM, borosin α-N-methyltransferase (wild type) (enzyme, Shewanella oneidensis MR-1)
# chain: MGSLVCVGTGLQLAGQISVLSRSYIEHADIVFSLLPDGFSQRWLTKLNPNVINLQQFYAQNGEVKNRRDTYEQMVNAILDAVRAGKKTVCALYGHPGVFACVSHMAITRAKAEGFSAKMEPGISAEACLWADLGIDPGNSGHQSFEASQFMFFNHVPDPTTHLLLWQIAIAGEHTLTQFHTSSDRLQILVEQLNQWYPLDHEVVIYEAANLPIQAPRIERLPLANLPQAHLMPISTLLIPPAKKLEYNYAILAKLGIGPEDLG
# Biological target: the molecule itself
# Experiment: crystal structure
protein,measurement,value
B1,stoichiometry N,2
